B1: ESR2 (parent)
chain: KSCQACRLRKCYEVGMVKCGSRRE

Variants of: B1
Experiment: protein stability index of a GFP-peptide fusion (GPS, HEK-293T) (PSI 1-6); higher = more stable
Conditions: c terminus: a fixed tail appended
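Note: lentivirally expressed fusions sorted by FACS into six bins by GFP to DsRed ratio, PSI derived from sequencing read proportions per bin multiplied by bin number.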

Variant	protein stability index
KSCQACRLRKMYEVGMVKCGSRRE [C11M]	2.6
KSCQACRLRKVYEVGMVKCGSRRE [C11V]	2.47
KSCQACRLRKSYEVGMVKCGSRRE [C11S]	1.68
KSCQACRLRKQYEVGMVKCGSRRE [C11Q]	1.79
KSCQACRLRKEYEVGMVKCGSRRE [C11E]	1.57
KSCQACRLRKGYEVGMVKCGSRRE [C11G]	2.4
KSCQACRLRKTYEVGMVKCGSRRE [C11T]	2.29
KSCQACRLRKLYEVGMVKCGSRRE [C11L]	2.31
KSCQACRLRKRYEVGMVKCGSRRE [C11R]	2.5
KSCQACRLRKPYEVGMVKCGSRRE [C11P]	1.38
KSCQACRLRKIYEVGMVKCGSRRE [C11I]	2.19
KSCQACRLRKWYEVGMVKCGSRRE [C11W]	2
KSCQACRLRKDYEVGMVKCGSRRE [C11D]	2.72
KSCQACRLRKHYEVGMVKCGSRRE [C11H]	1.74
KSCQACRLRKAYEVGMVKCGSRRE [C11A]	1.82
KSCQACRLRKFYEVGMVKCGSRRE [C11F]	2.52
KSCQACRLRKKYEVGMVKCGSRRE [C11K]	2.3
KSCQACRLRKNYEVGMVKCGSRRE [C11N]	1.78
KSCQACRLRKCYEVMMVKCGSRRE [G15M]	1.96
KSCQACRLRKCYEVRMVKCGSRRE [G15R]	1.91
KSCQACRLRKCYEVYMVKCGSRRE [G15Y]	1.81
KSCQACRLRKCYEVTMVKCGSRRE [G15T]	2.03
KSCQACRLRKCYEVHMVKCGSRRE [G15H]	1.86
KSCQACRLRKCYEVQMVKCGSRRE [G15Q]	1.49

Variant	protein stability index
KSCQACRLRKCYEVVMVKCGSRRE [G15V]	1.25
KSCQACRLRKCYEVSMVKCGSRRE [G15S]	1.34
KSCQACRLRKCYEVNMVKCGSRRE [G15N]	1.97
KSCQACRLRKCYEVCMVKCGSRRE [G15C]	2.25
KSCQACRLRKCYEVEMVKCGSRRE [G15E]	1.38
KSCQACRLRKCYEVDMVKCGSRRE [G15D]	2.19
KSCQACRLRKCYEVAMVKCGSRRE [G15A]	1.69
KSCQACRLRKCYEVFMVKCGSRRE [G15F]	2.41
KSCQACRLRKCYEVIMVKCGSRRE [G15I]	1.79
KSCQACRLRKCYEVKMVKCGSRRE [G15K]	2.18
KSCQACRLRKCYEVLMVKCGSRRE [G15L]	1.55
KSCQACRLRKCYEVPMVKCGSRRE [G15P]	2.35
KSCQACRLRKCYEVGMIKCGSRRE [V17I]	2.21
KSCQACRLRKCYEVGMFKCGSRRE [V17F]	1.94
KSCQACRLRKCYEVGMRKCGSRRE [V17R]	1.82
KSCQACRLRKCYEVGMMKCGSRRE [V17M]	2.37
KSCQACRLRKCYEVGMPKCGSRRE [V17P]	1.82
KSCQACRLRKCYEVGMAKCGSRRE [V17A]	2.41
KSCQACRLRKCYEVGMNKCGSRRE [V17N]	3.53
KSCQACRLRKCYEVGMLKCGSRRE [V17L]	1.61
KSCQACRLRKCYEVGMGKCGSRRE [V17G]	2.27
KSCQACRLRKCYEVGMQKCGSRRE [V17Q]	2.1
KSCQACRLRKCYEVGMCKCGSRRE [V17C]	3.72
KSCQACRLRKCYEVGMYKCGSRRE [V17Y]	1.78

Variant	protein stability index
KSCQACRLRKCYEVGMKKCGSRRE [V17K]	2.54
KSCQACRLRKCYEVGMWKCGSRRE [V17W]	1.86
KSCQACRLRKCYEVGMHKCGSRRE [V17H]	2.97
KSCQACRLRKCYEVGMDKCGSRRE [V17D]	1.6
KSCQACRLRKCYEVGMSKCGSRRE [V17S]	2.16
KSCQACRLRKCYEVGMTKCGSRRE [V17T]	1.98
KSCQACRLRKCYEVGMEKCGSRRE [V17E]	1.89
KSCQACRVRKCYEVGMVKCGSRRE [L8V]	1.73
KSCQACRQRKCYEVGMVKCGSRRE [L8Q]	1.84
KSCQACRHRKCYEVGMVKCGSRRE [L8H]	2.4
KSCQACRTRKCYEVGMVKCGSRRE [L8T]	2.11
KSCQACRCRKCYEVGMVKCGSRRE [L8C]	2.61
KSCQACRFRKCYEVGMVKCGSRRE [L8F]	2.21
KSCQACRWRKCYEVGMVKCGSRRE [L8W]	1.87
KSCQACRGRKCYEVGMVKCGSRRE [L8G]	2.36
KSCQACRNRKCYEVGMVKCGSRRE [L8N]	2.74
KSCQACRRRKCYEVGMVKCGSRRE [L8R]	2.18
KSCQACRPRKCYEVGMVKCGSRRE [L8P]	2.27
KSCQACRERKCYEVGMVKCGSRRE [L8E]	2.47
KSCQACRMRKCYEVGMVKCGSRRE [L8M]	2.24
KSCQACRIRKCYEVGMVKCGSRRE [L8I]	1.64
KSCQACRKRKCYEVGMVKCGSRRE [L8K]	2.66
KSCQACRYRKCYEVGMVKCGSRRE [L8Y]	2.35
KSCQACRSRKCYEVGMVKCGSRRE [L8S]	2.83

Variant	protein stability index
KSCQACRDRKCYEVGMVKCGSRRE [L8D]	1.61
KSCQACRLRKCKEVGMVKCGSRRE [Y12K]	2.11
KSCQACRLRKCNEVGMVKCGSRRE [Y12N]	2.43
KSCQACRLRKCVEVGMVKCGSRRE [Y12V]	2.19
KSCQACRLRKCWEVGMVKCGSRRE [Y12W]	2.24
KSCQACRLRKCTEVGMVKCGSRRE [Y12T]	2.77
KSCQACRLRKCCEVGMVKCGSRRE [Y12C]	2.78
KSCQACRLRKCMEVGMVKCGSRRE [Y12M]	1.41
KSCQACRLRKCAEVGMVKCGSRRE [Y12A]	2.9
KSCQACRLRKCGEVGMVKCGSRRE [Y12G]	2.36
KSCQACRLRKCHEVGMVKCGSRRE [Y12H]	2.03
KSCQACRLRKCSEVGMVKCGSRRE [Y12S]	2.29
KSCQACRLRKCDEVGMVKCGSRRE [Y12D]	1.83
KSCQACRLRKCIEVGMVKCGSRRE [Y12I]	1
KSCQACRLRKCEEVGMVKCGSRRE [Y12E]	2.85
KSCQACRLRKCLEVGMVKCGSRRE [Y12L]	1.89
KSCQACRLRKCREVGMVKCGSRRE [Y12R]	1.9
KSCQACRLRKCFEVGMVKCGSRRE [Y12F]	1.77
KSCQACRLRKCQEVGMVKCGSRRE [Y12Q]	2.06
KSCQACRLRKCPEVGMVKCGSRRE [Y12P]	2.13
KSCQACRLRKCYEVGMVACGSRRE [K18A]	1.89
KSCQACRLRKCYEVGFVKCGSRRE [M16F]	2.1
